Among the data in publication doi:10.1101/2025.11.06.687013 are fold decrease of H-2Kb display against ca3 values, retold here.

Starred links: 1 amine or outer side, 2 acyl side, 3 side chain; linkers in the order of their positions; H or OH if unused. Non-standard residues stand in square brackets, D forms with d. No end group written: not given here. βAsp = O=C(O)[C@H](CC(=O)[*:2])N[*:1]

The target of this experiment is H-2K^b (mouse (endogenous in RMA-S)). The experiment is described as follows: flow cytometry on cells.

For the molecule I[βAsp]FDFPKL [ca3_(isoasp)], the fold decrease of H-2Kb display against ca3 is greater than 100 fold.
